Measured values reported in the Immune Epitope Database (IEDB).
Each block holds one sequence with its values, some of them ahead of it.

Key:
HLA-B*27:20 = experiment: IEDB peptide-MHC binding, purified MHC/competitive/fluorescence; filed as Kd, often an IC50 or EC50 that approximates it; ≥ and ≤ were set here for values at or beyond the usual limits of such assays
HLA-B*45:06 = experiment: as above
HLA-B*15:42 = experiment: as above
HLA-B*40:01 = experiment: IEDB peptide-MHC binding, purified MHC/direct/fluorescence; filed as Kd, often an IC50 or EC50 that approximates it; ≥ and ≤ were set here for values at or beyond the usual limits of such assays
HLA-B*73:01 = experiment: IEDB peptide-MHC binding, purified MHC/competitive/fluorescence; filed as Kd, often an IC50 or EC50 that approximates it; ≥ and ≤ were set here for values at or beyond the usual limits of such assays
HLA-B*15:02 = experiment: as above; conditions: source organism: Vibrio vulnificus CMCP6
HLA-B*83:01 = experiment: as above
HLA-C*06:02 = experiment: IEDB peptide-MHC binding, purified MHC/direct/fluorescence; filed as Kd, often an IC50 or EC50 that approximates it; ≥ and ≤ were set here for values at or beyond the usual limits of such assays; conditions: source organism: human gammaherpesvirus 4
HLA-A*02:01 [1] = experiment: IEDB peptide-MHC binding, purified MHC/competitive/fluorescence; ≥ and ≤ were set here for values at or beyond the usual limits of such assays; conditions: source organism: Taeniopygia guttata
HLA-B*51:01 [2] = experiment: as above; conditions: source organism: Taeniopygia guttata
HLA-A*02:50 = experiment: IEDB peptide-MHC binding, purified MHC/competitive/fluorescence; filed as Kd, often an IC50 or EC50 that approximates it; ≥ and ≤ were set here for values at or beyond the usual limits of such assays
HLA-A*69:01 = experiment: IEDB peptide-MHC binding, purified MHC/direct/fluorescence; filed as Kd, often an IC50 or EC50 that approximates it; ≥ and ≤ were set here for values at or beyond the usual limits of such assays
HLA-A*02:01 [3] = experiment: as above
HLA-A*02:19 = experiment: as above; conditions: source organism: Coxiella burnetii Q321
HLA-B*57:01 = experiment: as above; conditions: source organism: Giardia lamblia ATCC 50803
HLA-B*07:02 = experiment: as above; conditions: source organism: Giardia lamblia ATCC 50803
HLA-B*18:01 = experiment: as above; conditions: source organism: Giardia lamblia ATCC 50803
HLA-B*46:01 = experiment: as above; conditions: source organism: Giardia lamblia ATCC 50803
HLA-A*01:01 = experiment: as above
HLA-A*26:01 = experiment: as above; conditions: source organism: Giardia lamblia ATCC 50803
HLA-B*15:09 = experiment: as above; conditions: source organism: Giardia lamblia ATCC 50803
HLA-A*11:01 = experiment: as above; conditions: source organism: Giardia lamblia ATCC 50803
HLA-A*31:01 = experiment: as above; conditions: source organism: Giardia lamblia ATCC 50803
HLA-A*03:01 = experiment: as above; conditions: source organism: Giardia lamblia ATCC 50803
HLA-B*15:01 = experiment: as above; conditions: source organism: Giardia lamblia ATCC 50803
HLA-B*48:01 = experiment: as above; conditions: source organism: Giardia lamblia ATCC 50803
HLA-B*08:01 = experiment: as above; conditions: source organism: Giardia lamblia ATCC 50803
HLA-B*58:01 = experiment: as above; conditions: source organism: Giardia lamblia ATCC 50803
HLA-A*30:01 = experiment: as above; conditions: source organism: Giardia lamblia ATCC 50803
HLA-B*27:05 = experiment: as above; conditions: source organism: Giardia lamblia ATCC 50803
HLA-B*51:01 [4] = experiment: as above; conditions: source organism: Giardia lamblia ATCC 50803
HLA-B*15:17 = experiment: as above; conditions: source organism: Giardia lamblia ATCC 50803
HLA-A*68:23 = experiment: IEDB peptide-MHC binding, purified MHC/competitive/fluorescence; filed as Kd, often an IC50 or EC50 that approximates it; ≥ and ≤ were set here for values at or beyond the usual limits of such assays; conditions: source organism: Sudan ebolavirus
HLA-A*29:02 = experiment: IEDB peptide-MHC binding, purified MHC/direct/fluorescence; filed as Kd, often an IC50 or EC50 that approximates it; ≥ and ≤ were set here for values at or beyond the usual limits of such assays; conditions: source organism: Sudan ebolavirus
[5] = source organism: Mycobacterium tuberculosis H37Ra
[6] = source organism: Mycobacterium tuberculosis
[7] = source organism: human gammaherpesvirus 4
[8] = source organism: Coxiella burnetii
[9] = source organism: Giardia lamblia ATCC 50803
[10] = source organism: Listeria monocytogenes HPB2262
[11] = source organism: Sudan ebolavirus

Sequence: LEMQHLISL
- Kd (HLA-B*27:20; [5]): 1.11 µM
- Kd (HLA-B*45:06; [5]): ≥ 5 µM
- Kd (HLA-B*15:42; [5]): ≥ 5 µM
- Kd (HLA-B*40:01; [6]): 0.0137 µM

Sequence: KRPYVFVAA
- Kd (HLA-B*73:01; source organism: Yersinia enterocolitica subsp. enterocolitica 8081): 0.0685 µM

Sequence: AMRVGSSIM
- Kd (HLA-B*15:02): 0.118 µM

Sequence: RRYASQTEL
- Kd (HLA-B*27:20; [7]): 0.0002 µM
- Kd (HLA-B*45:06; [7]): ≥ 5 µM
- Kd (HLA-B*83:01; [7]): ≥ 5 µM
- Kd (HLA-B*15:42; [7]): ≥ 5 µM
- Kd (HLA-C*06:02): 0.021 µM

- IC50 (HLA-A*02:01 [1]): 0.0526 µM
- IC50 (HLA-B*51:01 [2]): ≥ 20 µM
Sequence: FLLPILSQI

Sequence: LLYEVDGDV
- Kd (HLA-A*02:50; source organism: Mycobacterium tuberculosis variant bovis BCG str. Pasteur 1173P2): 1.13 µM
- Kd (HLA-A*69:01; [6]): ≥ 20 µM
- Kd (HLA-A*02:01 [3]; [6]): ≥ 20 µM

Sequence: YQLGDYFFV
- Kd (HLA-A*02:50; source organism: Coxiella burnetii Dugway 5J108-111): ≤ 0.0001 µM
- Kd (HLA-A*69:01; [8]): 0.0013 µM
- Kd (HLA-A*02:01 [3]; [8]): 0.0015 µM
- Kd (HLA-A*02:19): 0.002 µM

Sequence: RPALVVDTP
- Kd (HLA-B*57:01): ≥ 20 µM
- Kd (HLA-B*07:02): ≥ 20 µM
- Kd (HLA-B*18:01): ≥ 20 µM
- Kd (HLA-A*69:01; [9]): ≥ 20 µM
- Kd (HLA-B*46:01): ≥ 20 µM
- Kd (HLA-A*01:01; [9]): ≥ 20 µM
- Kd (HLA-A*26:01): ≥ 20 µM
- Kd (HLA-B*15:09): ≥ 20 µM
- Kd (HLA-A*02:01 [3]; [9]): ≥ 20 µM
- Kd (HLA-A*11:01): ≥ 20 µM
- Kd (HLA-A*31:01): ≥ 20 µM
- Kd (HLA-A*03:01): ≥ 20 µM
- Kd (HLA-B*15:01): ≥ 20 µM
- Kd (HLA-B*48:01): ≥ 20 µM
- Kd (HLA-B*08:01): ≥ 20 µM
- Kd (HLA-B*58:01): ≥ 20 µM
- Kd (HLA-A*30:01): ≥ 20 µM
- Kd (HLA-B*27:05): ≥ 20 µM
- Kd (HLA-B*40:01; [9]): ≥ 20 µM
- Kd (HLA-B*51:01 [4]): ≥ 20 µM
- Kd (HLA-B*15:17): ≥ 20 µM

Sequence: FETMVFPAV
- Kd (HLA-B*45:06; [10]): ≥ 5 µM
- Kd (HLA-B*83:01; [10]): ≥ 5 µM
- Kd (HLA-B*15:42; [10]): ≥ 5 µM
- Kd (HLA-B*73:01; [10]): ≥ 5 µM

Sequence: CTSSIQYHR
- Kd (HLA-B*45:06; [11]): ≥ 5 µM
- Kd (HLA-B*83:01; [11]): ≥ 5 µM
- Kd (HLA-B*15:42; [11]): ≥ 5 µM
- Kd (HLA-A*68:23): 0.0038 µM
- Kd (HLA-A*01:01; [11]): ≥ 20 µM
- Kd (HLA-A*29:02): 1.44 µM
